Tests used:
[1] = system: B16F10 tumor model; experiment: Syngeneic B16F10 tumor model, combination with anti-PD-1 Ab; tumor T cell influx by flow cytometry; type: in vivo, C57BL/6 mice
Experimental: B16F10 model was established in female C57BL/6 mice by subcutaneous injection of 0.5×10^6 cells into the right flank of each mouse. On day 7 once tumors reached approximately 30 mm^3, mice were randomized according to tumor volume into treatment groups (n=10 per group). Mice received treatment of either anti-mouse ENTPD2 mAb13 at a final dose 15 mg/kg, anti-PD-1 Ab (clone RMP1-14 Bio X Cell, West Lebanon, N.H.) i.p. at a final dose of 10 mg/kg or the combination of both treatments on days 1, 5, and 8. All doses were adjusted to individual mouse body weights.
In order to understand the impact of treatments on the tumor microenvironment, mice were euthanized on day 8 and tumors were dissociated in HyClone RPMI1640 media (GE Healthcare, Pittsburg, Pa.) using gentleMacs C-tubes (Miltenyi Biotec, Auburn, Calif.) on the gentleMacs Octo Dissociator (Miltenyi Biotec, Auburn, Calif.). Approximately 2×10^6 dissociated tumor cells were blocked with rat anti-mouse CD16/CD32 Ab (Biolegend, San Diego, Calif.) to reduce non-specific FcγRIII/II binding and subsequently stained with the following cocktail of Abs: rat anti-mouse CD45-BUV395 (clone 30-F11) (BD Biosciences, San Jose, Calif.), rat anti-mouse CD8a-BUV737 (clone 53-6.7) (BD Biosciences, San Jose, Calif.), rat anti-mouse CD4-BV510 (clone RM4-5) (BD Bioscience, San Jose, Calif.), anti-mouse CD69-PercPCy5.5 (clone H1-2F3) (Biolegend, San Diego, Calif.) and rat anti-mouse CD25-eFluor450 (clone eBio3C7) (eBioscience, San Diego, Calif.) at the manufacturers' recommended dilutions. All incubations and washes were performed in FACS Buffer composed of 1× HyClone Phosphate Buffered Saline (GE Healthcare, Pittsburg, PA), 1% HyClone Fetal Bovine Serum (GE Healthcare, Pittsburg, Pa.), 2 mM EDTA (ThermoFisher, Waltham Mass.). After staining with the cell surface antigen antibody cocktail, dissociated tumor cells were washed in FACS buffer, fixed and permeabilized using the eBioscience Foxp3/Transcription Factor Staining Buffer Kit (ThermoFisher, Waltham Mass.) to allow for intracellular staining with the mouse anti-mouse FOXP3-eFluor660 (clone 150D/E4) (eBioscience, San Diego, Calif.).

[2] = molecular target: T1, mouse ENTPD2 (Mus musculus, UniProt O55026); experiment: Mouse ENTPD2 NIH/3T3 cell-based functional assay
T1 construct: expressed in transfected cells; host or cells: NIH/3T3 (retroviral transduction)
T1 sequence (O55026 1-495): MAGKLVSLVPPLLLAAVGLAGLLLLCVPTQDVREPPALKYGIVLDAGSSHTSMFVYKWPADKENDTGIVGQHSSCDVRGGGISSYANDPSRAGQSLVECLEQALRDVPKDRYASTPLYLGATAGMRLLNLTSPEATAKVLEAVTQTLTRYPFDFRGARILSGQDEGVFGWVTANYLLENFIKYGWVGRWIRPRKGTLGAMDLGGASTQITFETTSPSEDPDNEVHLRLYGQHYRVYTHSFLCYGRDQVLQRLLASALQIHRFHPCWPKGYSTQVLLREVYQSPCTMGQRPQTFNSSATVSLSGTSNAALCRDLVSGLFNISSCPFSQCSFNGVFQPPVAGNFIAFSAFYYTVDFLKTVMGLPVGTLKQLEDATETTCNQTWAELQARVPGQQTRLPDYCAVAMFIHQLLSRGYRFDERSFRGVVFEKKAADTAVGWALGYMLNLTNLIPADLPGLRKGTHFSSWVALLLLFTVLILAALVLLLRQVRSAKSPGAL
Excerpt: Biochemical and cell-based functional assays were developed in-house to understand functional impact of anti-ENTPD2 Abs against purified extracellular domain of ENTPD2 (residues 29-462), as well as against the fully intact protein in the context of the native cell-based conformation. ENTPD2 hydrolyzes ATP to ADP, which can subsequently be detected using the HTRF Transcreener ADP2 TR-FRET Red Assay (BellBrook Labs, Madison, Wis.) where ENTPD2-produced ADP would compete with the ADP Tracer for binding to the anti-ADP-Tb antibody. The resulting signal is inversely proportional to the concentration of ADP in the sample.
To establish cell-based functional assays, human/cyno/mouse ENTPD2-engineered NIH/3T3 cells or RKO (ATCC, Manassa Va.) colorectal cancer cells with endogenous ENTPD2 expression were plated overnight at 150, 200 and 250 cells per well for NIH/3T3 mouse, cyno and human ENTPD2 lines, respectively, or 1000 cells per well for RKO in 384-well tissue culture plate, in 30 μl per well (Perkin Elmer, Waltham, Mass.). The following day cells were pre-incubated with Anti-ENTPD2 Abs in dose response for 60 min at 37° C., 5% CO2 (10 μl of 5× antibody dose per well), and subsequently stimulated with a final concentration of 10 μM ATP (Teknova, Hollister, Calif.) for 20 minutes at room temperature (10 μl of 5× (50 μM) ATP per well). Reactions were quenched with 40 mM EDTA/40 mM EGTA, 25 μl per well, and 15 μl of quenched media was transferred to low volume Proxiplates (PerkinElmer, Waltham, Mass.) for ADP detection. ADP production was detected with the Transcreener ADP2 TR-FRET Red Assay (BellBrook Labs, Madison, Wis.) with a final concentration of 4 nM ADP2 antibody and 13.4 nM of ADP Tracer in wells (4× solution was prepared and 5 μL of “Detection Reagent Mix” was added to the quenched conditioned media). Plates were incubated with detection reagents for 1 hour at room temperature prior to reading plates in HTRF mode.
HTRF signal (Emission at 620 nm and 665 nm) was assessed in both assays using the Envision plate reader in HTRF mode (Perkin Elmer, Waltham, Mass.). HTRF ratio was determined using the following formula: HTRF ratio=R=Emission at 665 nm/Emission at 620 nm×10,000. Subsequently % Residual Activity and % Inhibition were determined as follows:
Where R0% is the HTRF ratio of the negative control (0% enzyme activity), and R100% is the HTRF ratio of the positive control (100% enzyme activity). Data were analyzed in Microsoft Excel and graphed using GraphPad's Prism 7.0 software and IC50 values were obtained using non-linear regression, log (agonist) vs. response-variable slope (four parameters) analysis.
Anti-ENTPD2 mAb13 was identified as a mouse ENTPD2 selective Ab (FACS EC50 3-4 nM) with no binding to human or cyno ENTPD2.

[3] = combination with anti-PD-1 Ab, tumor, day 8

B1: mAb13: anti-mouse ENTPD2 antibody; HC SEQ ID NO: 193, LC SEQ ID NO: 204 (antibody)
heavy: QVQLVQSGAELKQPGQSVKISCKASGYTFTHYGMNWVKQAPGQGLKWMGWINTDTGNPTYADDFKGRFVFSLDTSVSTAYLQISNLKNEDTATYYCVRYGTLYSGYGFFFDSWGQGTLVTVSSAKTTAPSVYPLAPVCGDTTGSSVTLGCLVKGYFPEPVTLTWNSGSLSSGVHTFPAVLQSDLYTLSSSVTVTSSTWPSQSITCNVAHPASSTKVDKKIEPRGPTIKPCPPCKCPAPNLLGGPSVFIFPPKIKDVLMISLSPIVTCVVVDVSEDDPDVQISWFVNNVEVHTAQTQTHREDYNSTLRVVSALPIQHQDWMSGKEFKCKVNNKDLPAPIERTISKPKGSVRAPQVYVLPPPEEEMTKKQVTLTCMVTDFMPEDIYVEWTNNGKTELNYKNTEPVLDSDGSYFMYSKLRVEKKNWVERNSYSCSVVHEGLHNHHTTKSFSRTPGK
light: DIMMTQSPSSLSVSAGEKATITCKSSQSLFNSNTNKNYLNWYLQKPGQSPKLLFYYASTRHTGVPDRFIGSGSGTDFTLTITSVQDEDLADYYCQQWYSYPWTFGPGTKLEIKRADAAPTVSIFPPSSEQLTSGGASVVCFLNNFYPKDINVKWKIDGSERQNGVLNSWTDQDSKDSTYSMSSTLTLTKDEYERHNSYTCEATHKTSTSPIVKSFNRNEC
With B1 the anti-tumor efficacy ([1]; alone, mAb13 15 mg/kg, anti-PD-1 Ab 10 mg/kg i.p., days 1, 5, 8) was “No significant anti-tumor efficacy”, the “tumor growth relative to No Treatment control” value ([1]; combination of mAb13 15 mg/kg and anti-PD-1 Ab 10 mg/kg) was “significant reduction in tumor growth” and the “influx of activated CD4 T-helper cells (CD45+ CD8-CD4+ FOXP3-CD69+ CD25+), increase vs No Treatment” value [1, 3] was 7.0 -fold. The “influx of activated CD8 T cells (CD45+ CD4-CD8+ CD69+ CD25+), change vs No Treatment” value [1, 3] was 5.8 -fold, the “maximum target inhibition (mouse ENTPD2 inhibition)” value ([2]; NIH3T3-mouse ENTPD2 engineered cell line) was 44% and the “% Inhibition at 100 nM (±Std Err)” value ([2]; mouse ENTPD2 NIH/3T3 cells, 100 nM) was 44 ± 7.3%.

Source: patent publication US20220348651A1, “ENTPD2 ANTIBODIES, COMBINATION THERAPIES, AND METHODS OF USING THE ANTIBODIES AND COMBINATION THERAPIES” (Novartis AG, priority 2019, published 2022)
